From patent publication US20210388087A1 (Chugai, published 2021)
Where a chain is given by its changes, count along the chain named. Names may count otherwise.

B1: CE115HA000 Y59E one-arm antibody (antibody, human IgG1, kappa, L234A L235A, N297A, name in Kabat numbering)
heavy: QVQLVESGGGVVQPGRSLRLSCAASGFTFSNAWMHWVRQAPGKGLEWVAQIKAKSNNYATYEAESVKGRFTISRDDSKNSLYLQMNSLKTEDTAVYYCRYVHYGAYYGVDAWGQGTTVTVSSASTKGPSVFPLAPSSKSTSGGTAALGCLVKDYFPEPVTVSWNSGALTSGVHTFPAVLQSSGLYSLSSVVTVPSSSLGTQTYICNVNHKPSNTKVDKKVEPKSCDKTHTCPPCPAPEAAGGPSVFLFPPKPKDTLMISRTPEVTCVVVDVSHEDPEVKFNWYVDGVEVHNAKTKPREEQYASTYRVVSVLTVLHQDWLNGKEYKCKVSNKALPAPIEKTISKAKGQPREPQVYTLPPSRCELTKNQVSLSCAVKGFYPSDIAVEWESNGQPENNYKTTPPVLDSDGSFFLVSKLTVDKSRWQQGNVFSCSVMHEALHNHYTQKSLSLSPDYKDDDDK
chain: EPKSSDKTHTCPPCPAPELLGGPSVFLFPPKPKDTLMISRTPEVTCVVVDVSHEDPEVKFNWYVDGVEVHNAKTKPREEQYNSTYRVVSVLTVLHQDWLNGKEYKCKVSNKALPAPIEKTISKAKGQPREPQVCTLPPSRDELTKNQVSLWCLVKGFYPSDIAVEWESNGQPENNYKTTPPVLDSDGSFFLYSKLTVDKSRWQQGNVFSCSVMHEALHNRYTQKSLSLSP
light: DIVMTQSPLSLPVTPGEPASISCRSSQSLVHSNRNTYLHWYQQKPGQAPRLLIYKVSNRFSGVPDRFSGSGSGTDFTLKISRVEAEDVGVYYCGQGTQVPYTFGQGTKLEIKRTVAAPSVFIFPPSDEQLKSGTASVVCLLNNFYPREAKVQWKVDNALQSGNSQESVTEQDSKDSTYSLSSTLTLSKADYEKHKVYACEVTHQGLSSPVTKSFNRGEC
B2: CE115HA000 Y59S one-arm antibody (antibody, human IgG1, kappa, L234A L235A, N297A, name in Kabat numbering)
heavy: B1 heavy with E62S
chain: B1 chain
light: B1 light
B3: CE115HA000 Y97A one-arm antibody (antibody, human IgG1, kappa, L234A L235A, N297A, name in Kabat numbering)
heavy: B1 heavy with E62Y, Y103A
chain: B1 chain
light: B1 light
B4: CE115HA000 Y97D one-arm antibody (antibody, human IgG1, kappa, L234A L235A, N297A, name in Kabat numbering)
heavy: B1 heavy with E62Y, Y103D
chain: B1 chain
light: B1 light
B5: CE115HA000 Y97G one-arm antibody (antibody, human IgG1, kappa, L234A L235A, N297A, name in Kabat numbering)
heavy: B1 heavy with E62Y, Y103G
chain: B1 chain
light: B1 light
B6: CE115HA000 Y97P one-arm antibody (antibody, human IgG1, kappa, L234A L235A, N297A, name in Kabat numbering)
heavy: B1 heavy with E62Y, Y103P
chain: B1 chain
light: B1 light
B7: CE115HA000 Y97R one-arm antibody (antibody, human IgG1, kappa, L234A L235A, N297A, name in Kabat numbering)
heavy: B1 heavy with E62Y, Y103R
chain: B1 chain
light: B1 light
B8: CE115HA000 Y97S one-arm antibody (antibody, human IgG1, kappa, L234A L235A, N297A, name in Kabat numbering)
heavy: B1 heavy with E62Y, Y103S
chain: B1 chain
light: B1 light
B9: CE115HA000 Y100A one-arm antibody (antibody, human IgG1, kappa, L234A L235A, N297A, name in Kabat numbering)
heavy: B1 heavy with E62Y, Y106A
chain: B1 chain
light: B1 light
B10: CE115HA000 Y100D one-arm antibody (antibody, human IgG1, kappa, L234A L235A, N297A, name in Kabat numbering)
heavy: B1 heavy with E62Y, Y106D
chain: B1 chain
light: B1 light

biological target: T1, CD3 epsilon homodimer protein (UniProt P07766 23-126); assay: SPR (Biacore T200), CD3 epsilon homodimer on CM4 chip, one-arm antibody as analyte, 25 C;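 also: homodimer attached to the sensor surface via amine coupling, HBS-EP+ used as running buffer during binding runs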
T1 construct: immobilized on Sensor chip CM4 by amine coupling; also called CD3 (CD3 epsilon)
T1 sequence (P07766 23-126): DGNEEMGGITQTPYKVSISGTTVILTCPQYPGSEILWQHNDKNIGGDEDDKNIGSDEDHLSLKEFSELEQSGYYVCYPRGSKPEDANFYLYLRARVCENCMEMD

Row | Binder | ratio of amounts bound (altered form / CE115HA000)
1 | B1 | 0.66
2 | B2 | 0.94
3 | B3 | 0.16
4 | B4 | 0.24
5 | B5 | 0.18
6 | B6 | 0.11
7 | B7 | 0.27
8 | B8 | 0.18
9 | B9 | 0.9
10 | B10 | 0.52
